# Source: patent publication US12187807B2, “Antibody molecules to C5AR1 and uses thereof” (Visterra, Inc., priority 2020, dated 2025)
# Residue numbers refer to the chain shown, from its start.
# T1: C5aR1 mutants (N-terminus, ECL1, ECL2, ECL3) (Homo sapiens, UniProt P21730, D10A/K279N)
# T1 sequence (P21730 with tags, fused parts or gaps D10A/K279N): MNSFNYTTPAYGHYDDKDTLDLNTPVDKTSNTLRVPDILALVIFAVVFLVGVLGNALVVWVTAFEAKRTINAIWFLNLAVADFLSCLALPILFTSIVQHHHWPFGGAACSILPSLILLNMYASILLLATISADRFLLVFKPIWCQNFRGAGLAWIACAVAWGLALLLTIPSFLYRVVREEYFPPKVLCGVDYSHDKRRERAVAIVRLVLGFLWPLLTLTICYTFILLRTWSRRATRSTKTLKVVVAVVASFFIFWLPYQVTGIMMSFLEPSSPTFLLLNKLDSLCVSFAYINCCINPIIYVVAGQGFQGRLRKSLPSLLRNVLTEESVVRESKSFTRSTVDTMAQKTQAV
# T2: C5aR1 mutants (N-terminus, ECL1, ECL2, ECL3) (Homo sapiens, UniProt P21730, K279N/T8A)
# T2 sequence (P21730 with tags, fused parts or gaps T8A/K279N): T1 sequence (P21730 with tags, fused parts or gaps D10A/K279N) with T8A, A10D
# B1: clone 583: anti-C5aR1 Site I antibody; VH SEQ ID NO: 536, VL SEQ ID NO: 595 (antibody, V domains shown)
# VH: EVQLVESGGGLVKPGGSLKLSCAASGFTFNAYAMSWVRQTPEKRLEWVASISTGGNTYCPDSVKDRFTVSRDNVRNILYLQMSSLRSEDTAMYYCTRGYQRFSGFAYWGQGTLVTVS
# VL: DVVMTQTPLSPPVSLGYQASISCRSSQSLVHSNGNTYLNWYLQKPGQSPKLLIYKVSNRLSGVPDRFSGSGSGTDFTLKISRVETEDLGVYFCSQSTHVPYTFGGGTKLEIK
# Tests used:
# [1] = target: T1, C5aR1 mutants (N-terminus, ECL1, ECL2, ECL3); experiment: Alanine scanning / mutagenesis epitope mapping of C5aR1; format: binding; conditions: D10A
# In short: (§1)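 C5aR1 variants carried single alanine substitutions or introduced N-glycosylation sites across the N-terminus, ECL1, ECL2 and ECL3. Binding of individual monoclonal antibody clones to each mutant was assessed to map core epitopes. Sulfation of tyrosines 11 and 14 was considered for the site I binders.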
# [2] = target: T2, C5aR1 mutants (N-terminus, ECL1, ECL2, ECL3); experiment: as above; format: binding; conditions: T8A
# In short: as §1
molecule,measurement,setting,value
B1,binding to C5aR1 mutant,[1],moderately reduce binding
same,binding to C5aR1 mutant,[2],moderately reduce binding
